Test results: patent publication US20130273029A1 (Novartis, published 2013)
Numbering of substitutions follows the chain as printed.

B1: MOR13755 (antibody, human IgG1, kappa, V domains shown)
VH: QVQLVQSGAEVKKPGESLKISCKGSGYSFTTYWVAWVRQMPGKGLEWMGIIYPGQSDTIYSPSFQGQVTISADKSISTAYLQWSSLKASDTAMYYCARVHIIQPPSAWSYNAMDVWGQGTLVTVSS
VL: DIQMTQSPSSLSASVGDRVTITCRASQSISTYLNWYQQKPGKAPKLLIFGASNLQSGVPSRFSGSGSGTDFTLTISSLQPEDFATYYCQQSITELFTFGQGTKVEIKR
notes: tested as IgG
B2: MOR13763 (antibody, human IgG1, kappa, V domains shown)
VH: B1 VH with T31S
VL: B1 VL
notes: tested as IgG
B3: MOR13766 (antibody, human IgG1, kappa, V domains shown)
VH: B1 VH with Y32T, Q55S
VL: B1 VL
notes: tested as IgG
B4: MOR13762 (antibody, human IgG1, kappa, V domains shown)
VH: B1 VH with T31N, Y32T
VL: B1 VL
notes: tested as IgG
B5: MOR13758 (antibody, human IgG1, kappa, V domains shown)
VH: B1 VH with T31L
VL: B1 VL
notes: tested as IgG
B6: MOR13761 (antibody, human IgG1, kappa, V domains shown)
VH: B1 VH with T31Q, Y32T
VL: B1 VL
notes: tested as IgG
B7: MOR13867 (antibody, human IgG1, kappa, V domains shown)
VH: B1 VH with T30S, T31N, V34I
VL: B1 VL
notes: tested as IgG
B8: MOR13767 (antibody, human IgG1, kappa, V domains shown)
VH: B1 VH with Y32S
VL: B1 VL
notes: tested as IgG
B9: MOR13869 (antibody, human IgG1, kappa, V domains shown)
VH: B1 VH with T30S, T31N, V34I, Q55G
VL: B1 VL
notes: tested as IgG
B10: MOR13868 (antibody, human IgG1, kappa, V domains shown)
VH: B1 VH with T30S, T31N, V34I, Q55L
VL: B1 VL
notes: tested as IgG
B11: MOR13756 (antibody, human IgG1, kappa, V domains shown)
VH: B1 VH with T31L, Y32T
VL: B1 VL
notes: tested as IgG
B12: MOR13759 (antibody, human IgG1, kappa, V domains shown)
VH: B1 VH with Y32T, Q55L
VL: B1 VL
notes: tested as IgG
B13: MOR13765 (antibody, human IgG1, kappa, V domains shown)
VH: B1 VH with T31G, Y32S, Q55T
VL: B1 VL
notes: tested as IgG

target: T1, Human HER3, endogenous, on human cancer cell lines (SK-Br-3, MCF7, BT-474) (human, UniProt P21860 20-1342); assay: cell-based or functional assay
T1 sequence (P21860 20-1342): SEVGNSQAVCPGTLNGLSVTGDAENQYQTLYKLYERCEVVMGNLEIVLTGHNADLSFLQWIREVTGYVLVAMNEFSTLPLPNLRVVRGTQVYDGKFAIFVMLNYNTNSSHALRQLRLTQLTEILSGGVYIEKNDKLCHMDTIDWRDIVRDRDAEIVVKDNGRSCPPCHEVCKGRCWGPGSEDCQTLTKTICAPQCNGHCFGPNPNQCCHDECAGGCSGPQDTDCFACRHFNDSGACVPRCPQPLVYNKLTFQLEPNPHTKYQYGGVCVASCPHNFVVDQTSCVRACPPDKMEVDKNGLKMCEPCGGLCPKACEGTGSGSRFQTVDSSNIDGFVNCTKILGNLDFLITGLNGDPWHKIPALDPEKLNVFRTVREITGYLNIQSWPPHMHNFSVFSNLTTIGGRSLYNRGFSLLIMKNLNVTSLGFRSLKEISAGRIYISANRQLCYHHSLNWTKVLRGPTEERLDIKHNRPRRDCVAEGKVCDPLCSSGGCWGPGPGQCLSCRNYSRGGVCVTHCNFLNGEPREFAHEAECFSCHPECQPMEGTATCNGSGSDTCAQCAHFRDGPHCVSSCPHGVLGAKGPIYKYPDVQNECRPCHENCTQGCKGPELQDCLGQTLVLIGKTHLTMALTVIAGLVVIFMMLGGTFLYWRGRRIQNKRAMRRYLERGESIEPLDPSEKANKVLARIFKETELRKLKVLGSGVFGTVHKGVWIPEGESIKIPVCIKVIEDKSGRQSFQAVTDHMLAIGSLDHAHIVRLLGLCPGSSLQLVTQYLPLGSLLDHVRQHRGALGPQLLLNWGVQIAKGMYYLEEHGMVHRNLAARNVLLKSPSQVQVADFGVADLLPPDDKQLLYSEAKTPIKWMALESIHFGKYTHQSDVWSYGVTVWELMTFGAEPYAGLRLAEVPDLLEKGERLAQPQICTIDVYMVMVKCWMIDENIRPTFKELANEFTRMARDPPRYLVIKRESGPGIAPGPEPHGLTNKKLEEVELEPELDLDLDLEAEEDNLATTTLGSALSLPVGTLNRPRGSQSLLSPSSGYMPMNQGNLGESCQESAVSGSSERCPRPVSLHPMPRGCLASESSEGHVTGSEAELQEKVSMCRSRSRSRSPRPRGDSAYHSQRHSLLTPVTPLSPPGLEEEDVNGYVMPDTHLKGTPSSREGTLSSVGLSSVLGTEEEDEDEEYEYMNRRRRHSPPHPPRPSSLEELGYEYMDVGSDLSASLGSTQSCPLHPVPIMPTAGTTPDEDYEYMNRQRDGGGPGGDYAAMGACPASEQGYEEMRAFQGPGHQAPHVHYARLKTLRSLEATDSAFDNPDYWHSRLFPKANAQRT

| BT-474 pAkt (S473) % inhibition [%] | BT-474 pAkt (S473) IC50 [pM] | MCF7 pAkt (S473) % inhibition [%] | MCF7 pAkt (S473) IC50 [pM] | SK-Br-3 pAkt (S473) % inhibition [%] | SK-Br-3 pAkt (S473) IC50 [pM] | Binder |
| --- | --- | --- | --- | --- | --- | --- |
| 79 | 645 | 79 | 468 | 91 | 131 | B1 |
| 76 | 378 |  |  | 84 | 76 | B2 |
| 75 | 1190 | 67 | 296 | 91 | 89 | B3 |
| 86 | 291 |  |  | 86 | 63 | B4 |
| 78 | 371 |  |  | 90 | 110 | B5 |
| 83 |  |  |  | 86 | 52 | B6 |
| 84 | 472 |  |  | 95 | 120 | B7 |
| 82 | 167 |  |  | 89 | 92 | B8 |
| 79 | 3040 |  |  | 91 | 212 | B9 |
| 81 | 537 |  |  | 92 | 78 | B10 |
| 86 | 189 |  |  | 90 | 107 | B11 |
| 81 | 274 | 76 | 248 | 91 | 60 | B12 |
| 73 | 1180 | 71 | 412 | 90 | 113 | B13 |

target: T2, Hu HER3: CD33-[Human HER3, residues 20-640]-TAG (human, UniProt P21860 20-640); assay: SET, IgG vs soluble HER3-Tag
T2 construct: also called hu HER3-Tag; HER3-Tag; not shown: C-terminal TAG (e.g., FLAG TAG)
T2 sequence (P21860 20-640): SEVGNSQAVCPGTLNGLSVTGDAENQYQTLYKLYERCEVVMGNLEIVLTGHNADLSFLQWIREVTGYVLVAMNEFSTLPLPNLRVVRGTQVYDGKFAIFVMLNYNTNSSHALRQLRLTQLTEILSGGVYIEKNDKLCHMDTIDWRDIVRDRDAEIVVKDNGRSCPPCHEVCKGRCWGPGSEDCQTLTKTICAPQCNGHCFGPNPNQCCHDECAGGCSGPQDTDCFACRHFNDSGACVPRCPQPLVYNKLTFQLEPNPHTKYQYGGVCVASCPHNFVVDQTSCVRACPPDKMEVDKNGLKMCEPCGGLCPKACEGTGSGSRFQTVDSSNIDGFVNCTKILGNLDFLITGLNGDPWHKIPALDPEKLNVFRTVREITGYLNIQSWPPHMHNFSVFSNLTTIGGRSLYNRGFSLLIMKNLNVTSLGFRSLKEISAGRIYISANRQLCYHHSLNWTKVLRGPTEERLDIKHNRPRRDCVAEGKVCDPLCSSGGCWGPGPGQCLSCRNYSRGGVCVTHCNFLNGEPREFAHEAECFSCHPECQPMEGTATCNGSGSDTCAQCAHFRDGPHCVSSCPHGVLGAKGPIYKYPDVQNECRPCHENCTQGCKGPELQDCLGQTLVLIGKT
Procedure: Affinity determination in solution was essentially performed as previously described (Friguet et al., (1985) J Immunol Methods 77:305-19). In order to improve the sensitivity and accuracy of the SET method, it was transferred from classical ELISA to ECL based technology (Haenel et al., (2005) Anal Biochem 339:182-84).
The data was evaluated with XLfit software (ID Business Solutions) applying customized fitting models.
Antibody affinity was determined by solution equilibrium titration (SET) as described above. The results are summarized in Table 3 and example titration curves for MOR12616 and MOR12925 are contained in FIG. 1.

| Kd [nM] | Binder |
| --- | --- |
| 0.024 | B1 |
| 0.027 | B2 |
| 0.054 | B3 |
| 0.025 | B4 |
| 0.021 | B5 |
| 0.028 | B6 |
| 0.03 | B7 |
| 0.024 | B8 |
| 0.23 | B9 |
| 0.133 | B10 |
| 0.025 | B11 |
| 0.051 | B12 |
| 0.064 | B13 |

target: T1, Human HER3, endogenous, on human cancer …; assay: cell-based or functional assay; remark: another data set of the same source

| BT474 pHER3 % inhibition [%] | BT474 pHER3 IC50 [pM] | MCF7 pHER3 % inhibition [%] | MCF7 pHER3 IC50 [pM] | SK-Br-3 pHER3 % inhibition [%] | SK-Br-3 pHER3 IC50 [pM] | Binder |
| --- | --- | --- | --- | --- | --- | --- |
| 73 | 657 | 79 | 331 | 80 | 217 | B1 |
| 60 | 19500 |  |  | 77 | 107 | B2 |
| 62 | 708 | 72 | 354 | 79 | 106 | B3 |
| 41 | 271 |  |  | 70 | 90 | B4 |
| 67 | 382 |  |  | 77 | 91 | B5 |
| 56 | 364 |  |  | 76 | 62 | B6 |
| 71 | 643 | 78 | 267 | 83 | 107 | B7 |
| 61 | 496 |  |  | 78 | 130 | B8 |
| 55 | 1330 | 64 | 427 | 77 | 263 | B9 |
| 68 | 894 | 75 | 189 | 83 | 205 | B10 |
| 66 | 322 |  |  | 78 | 95 | B11 |
| 70 | 431 | 74 | 277 | 77 | 124 | B12 |
| 61 | 806 | 71 | 374 | 79 | 227 | B13 |

target: T1, Human HER3, endogenous, on human cancer …; assay: cell-based or functional assay; remark: another data set of the same source

| BT-474 proliferation % inhibition [%] | BT-474 proliferation IC50 [nM] | SK-Br-3 proliferation % inhibition [%] | SK-Br-3 proliferation IC50 [nM] | MCF7 proliferation % inhibition [%] | MCF7 proliferation IC50 [nM] | Binder |
| --- | --- | --- | --- | --- | --- | --- |
| 41 | 0.738 | 52 | 0.207 |  |  | B1 |
| 36 | 0.671 | 49 | 0.326 |  |  | B2 |
| 37 | 2.56 | 45 | 2.35 | 53 |  | B3 |
| 37 | 0.546 | 45 | 0.053 |  |  | B4 |
| 38 | 0.516 | 47 | 0.133 |  |  | B5 |
| 36 | 0.56 | 48 | 0.134 |  |  | B6 |
| 42 | 0.376 | 41 | 0.31 | 69 | 0.056 | B7 |
| 48 | 0.924 | 48 | 0.285 |  |  | B8 |
| 28 | 10.6 | 24 | 5.41 | 52 |  | B9 |
| 39 | 1.72 | 29 | 0.251 | 58 |  | B10 |
| 42 | 0.71 | 50 | 0.097 |  |  | B11 |
| 35 | 6.26 | 41 | 0.23 | 49 | 0.151 | B12 |
| 27 | 3.1 | 46 | 0.732 |  |  | B13 |
